# Measured values from the supplement of paper PMC7125110.
# ± gives the standard error. For part of these data: Fewer inactive variants are shown than the library holds.
# B1: glmS ribozyme (parent)
# chain: AUAAAAGCGCCAGAACUACAGAAAUGUAGUUGACGAGGAGGAGGUUUAUCGAAUUUUCGGCGGAUGCCUCCAAA
# Tests used:
# Conditions in all cases: with glucosamine-6-phosphate
# glucosamine-6-phosphate [1] = variants of: B1; assay: kcat; higher = faster cleavage; RNA array
# In short: (§1)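 Sequenced MiSeq chips were the platform: E. coli RNA polymerase transcribed barcoded ribozyme variants on them in situ, and a hybridised Cy3 probe tracked these at 37 °C. After glucosamine-6-phosphate (40 μM to 10 mM) in HEPES/KCl/Mg(OAc)2 buffer was flowed in, tiles were imaged over ~14 h. Signals normalised to baseline and to non-cleaving reference variants were reduced to per-tile medians and fit to one- or two-exponential decays to obtain kobs. kcat and KM were derived through weighted Michaelis–Menten fits across concentrations.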
# glucosamine-6-phosphate [2] = variants of: B1; assay: self-cleavage kobs at 40 uM GlcN6P; higher = faster cleavage; RNA array
# In short: as §1
# glucosamine-6-phosphate [3] = variants of: B1; assay: self-cleavage kobs at 160 uM GlcN6P; higher = faster cleavage; RNA array
# In short: as §1
# glucosamine-6-phosphate [4] = variants of: B1; assay: self-cleavage kobs at 640 uM GlcN6P; higher = faster cleavage; RNA array
# In short: as §1
# glucosamine-6-phosphate [5] = variants of: B1; assay: self-cleavage kobs at 2500 uM GlcN6P; higher = faster cleavage; RNA array
# In short: as §1
# glucosamine-6-phosphate [6] = variants of: B1; assay: self-cleavage kobs at 10000 uM GlcN6P; higher = faster cleavage; RNA array
# In short: as §1
# glucosamine-6-phosphate [7] = variants of: B1; assay: KM; higher = weaker cofactor use; RNA array
# In short: as §1
Variant,kcat (glucosamine-6-phosphate [1]) [s⁻¹],self-cleavage kobs at 40 uM GlcN6P (glucosamine-6-phosphate [2]) [s⁻¹],self-cleavage kobs at 160 uM GlcN6P (glucosamine-6-phosphate [3]) [s⁻¹],self-cleavage kobs at 640 uM GlcN6P (glucosamine-6-phosphate [4]) [s⁻¹],self-cleavage kobs at 2500 uM GlcN6P (glucosamine-6-phosphate [5]) [s⁻¹],self-cleavage kobs at 10000 uM GlcN6P (glucosamine-6-phosphate [6]) [s⁻¹],KM (glucosamine-6-phosphate [7]) [µM]
A53U U55A,0.026 ± 0.012,0.000486 ± 8.9e-05,0.000887 ± 0.00017,0.00403 ± 0.00095,0.00891 ± 0.0017,0.0215 ± 0.0042,
A12G C71G,0.000425 ± 2.2e-05,,,5.45e-05 ± 6.3e-06,0.00015 ± 1.6e-05,0.000298 ± 3.1e-05,4400 ± 370
U30A U57A,6.66e-05 ± 1.8e-05,< 1e-05,,3.87e-05 ± 1.5e-05,3.73e-05 ± 1.2e-05,6.84e-05 ± 1.4e-05,
A14U C50G C68A,7.35e-05 ± 2e-05,5.1e-05 ± 1.3e-05,,0.000122 ± 2.5e-05,7.66e-05 ± 2.9e-05,5.56e-05 ± 1.5e-05,
A12U G37U,3.51e-05 ± 1.1e-05,,,,,,
G7A G62U,< 1e-05,< 1e-05,,< 1e-05,,< 1e-05,
G38C C50G,1.28e-05 ± 1.9e-06,,,,,,
G9A U49A A52G,< 1e-05,,,,,,
G37C U69G,2.05e-05 ± 4e-06,,,,,,
A48U,0.000759 ± 5.7e-05,< 1e-05,,0.000153 ± 3.5e-06,0.000432 ± 1e-05,0.000593 ± 1.1e-05,2420 ± 350
U30G C67U,0.00191 ± 0.00047,9.9e-05 ± 2.5e-05,0.000289 ± 5.9e-05,0.000697 ± 0.00011,0.00139 ± 0.00022,0.00378 ± 0.0013,924 ± 380
A53U U57A,0.000262 ± 3e-05,,,5.19e-05 ± 8e-06,0.000113 ± 1.4e-05,0.000215 ± 3e-05,2870 ± 600
A14U G32C C71A,3.18e-05 ± 4.6e-06,< 1e-05,,,,3.33e-05 ± 1.2e-05,
A14C U65C,8.26e-05 ± 1.1e-05,< 1e-05,,3.59e-05 ± 1.4e-05,4.9e-05 ± 1.1e-05,7.7e-05 ± 1.2e-05,1220 ± 570
C10U C34A C50A G51U C70A,5.4e-05 ± 1.3e-05,,,,,7.55e-05 ± 2.9e-05,
A42U U69C C71U,0.00168 ± 0.0003,8.14e-05 ± 1.7e-05,,0.000956 ± 0.00016,0.00156 ± 0.00038,0.00136 ± 0.00028,700 ± 210
C58U C67A,3.03e-05 ± 4.9e-06,< 1e-05,,,,3.07e-05 ± 7.8e-06,
U54C U69G,6.89e-05 ± 7.2e-06,,3.54e-05 ± 1.6e-05,5.03e-05 ± 1.1e-05,7.28e-05 ± 1.1e-05,5.47e-05 ± 1.8e-05,
